From patent US20230405078 come the findings set out here.

The target of this data set is T1, elafin (AS-61641, Anaspec).
T1 chain: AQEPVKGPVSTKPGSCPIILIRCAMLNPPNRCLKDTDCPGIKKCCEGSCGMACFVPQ

B1: recombinant cathepsin S (1183-CY-010, R&D Systems) (protein)
chain: QLHKDPTLDHHWHLWKKTYGKQYKEKNEEAVRRLIWEKNLKFVMLHNLEHSMGMHSYDLGMNHLGDMTSEEVMSLMSSLRVPSQWQRNITYKSNPNRILPDSVDWREKGCVTEVKYQGSCGACWAFSAVGALEAQLKLKTGKLVSLSAQNLVDCSTEKYGNKGCNGGFMTTAFQYIIDNKGIDSDASYPYKAMDQKCQYDSKYRAATCSKYTELPYGREDVLKEAVANKGPVSVGVDARHPSFFLYRSGVYYEPSCTQNVNHGVLVVGYGDLNGKEYWLVKNSWGHNFGEEGYIRMARNKGNHCGIASFPSYPEI
As to B1, the “ERK1/2 phosphorylation and ProCOL1A2 expression in colonic fibroblasts” value was “reversed elafin-mediated inhibition of ERK1/2 phosphorylation and ProCOL1A2 expression in colonic fibroblasts”.
